From patent publication US20260224723A1, “ANTI-B7H3 ANTIBODY-DRUG CONJUGATE AND USE THEREOF” (Duality Biologics (Suzhou) Co., Ltd., priority 2022, published 2026)

Assays:
[1] = test system: MCF-7 cells expressing human full-length B7H3; experiment: Internalization test (HCS) on MCF-7; assay type: cell-based; settings: MCF-7, HCS
Procedure: Antibody internalization was determined by operetta CLS (PerkinElmer), a high-content imaging and analysis system that can collect and analyze images of samples at high speed and high sensitivity. MCF-7 cells expressing human full-length B7H3 (1.5×10^4 cells/well) were seeded into a 96-well clear bottom black plate pre-coated with 8 μg/mL poly-D-lysine. After incubation in an incubator set to 37° C., 5% CO2 overnight, various concentrations of the antibodies (3.16-fold serially diluted with 1×DPBS/1% BSA from 50 nM to 0.0005 nM) were incubated in a volume of 100 μL/well in a refrigerator set to 4° C. for 2 h. Anti-human B7H3 reference antibody enoblituzumab (MacroGeneics) was used as a positive control. Human IgG1 isotype antibody was used as a negative control. After washing the cells with 1×DPBS/1% BSA, Alexa 647 goat anti-human antibody (diluted in a 1:500 ratio in 1×DPBS/1% BSA) was added. The cells were incubated in a refrigerator set to 4° C. for 1 h in the dark. The cells were then washed once and resuspended in 1×DPBS/1% BSA at 37° C. for 2 h. […] The mean fluorescence intensity (MFI) of the cells was measured and analyzed by operetta CLS. EC50 values were calculated by four-parameter non-linear regression analysis using GraphPad Prism 7 software.

cynomolgus monkey B7H3 [2] = experiment: SPR binding affinity for cynomolgus monkey B7H3 (Biacore 8K); settings: analyte cynomolgus monkey B7H3
Procedure: The affinity of antibodies for cynomolgus monkey B7H3 was determined using surface plasmon resonance (SPR). The affinity of antibodies for cynomolgus monkey B7H3 was determined by Biacore 8K. An activator was prepared by mixing 400 mM EDC and 100 mM NHS (GE) immediately prior to injection into the channel. The CM5 sensor chip was activated for 420 seconds with the activator. Goat anti-human Fe IgG (30 μg/mL in 10 mM NaAc, pH 4.5) was then injected into the channel at a flow rate of 10 μL/min for 420 seconds. The chip was deactivated by 1 M ethanolamine hydrochloric acid. The antibodies diluted in running buffer (1×HBS-EP+) were injected into the channel at a flow rate of 10 μL/min for 30 seconds. […] Glycine (10 mM, pH 1.5) was injected as regeneration buffer after the dissociation phase.
The sensorgrams for the reference channel and the buffer channel were subtracted from the test sensorgrams. The experimental data for 6 analyte concentrations (50 nM, 25 nM, 12.5 nM, 6.25 nM, 3.125 nM, and 1.563 nM) were fitted with a 1:1 binding model. The molecular weight of the cynomolgus monkey B7H3 used in the calculation was 49 kDa.
(§1) The experimental data were fitted by a 1:1 binding model bundled with the Biacore 8K evaluation software.

human 2IgB7H3 = biological target: T1, human 2IgB7H3 (Homo sapiens, UniProt Q5ZPR3); experiment: SPR binding affinity for human 2IgB7H3 (Biacore 8K); settings: analyte human 2IgB7H3
T1 construct: His tag; purchased ACRO (ACROBiosystems) B73-H52E2
T1 sequence (Q5ZPR3 29-316 isoform Q5ZPR3-2 limits assumed): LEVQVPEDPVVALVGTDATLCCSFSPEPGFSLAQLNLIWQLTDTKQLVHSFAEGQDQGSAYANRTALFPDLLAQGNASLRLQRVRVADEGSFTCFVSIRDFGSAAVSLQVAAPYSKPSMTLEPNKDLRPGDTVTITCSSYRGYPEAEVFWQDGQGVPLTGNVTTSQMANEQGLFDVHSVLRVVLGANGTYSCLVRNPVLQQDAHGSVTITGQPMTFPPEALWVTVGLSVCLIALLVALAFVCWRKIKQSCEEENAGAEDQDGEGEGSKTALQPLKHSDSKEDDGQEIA
Procedure: The affinity of antibodies for human 2IgB7H3 was determined using surface plasmon resonance (SPR). The affinity of antibodies for human 2IgB7H3 was determined by Biacore 8K. An activator was prepared by mixing 400 mM EDC and 100 mM NHS (GE) immediately prior to injection into the channel. The CM5 sensor chip was activated for 420 seconds with the activator. Goat anti-human Fc IgG (30 μg/mL in 10 mM NaAc, pH 4.5) was then injected into the channel at a flow rate of 10 μL/min for 420 seconds. The chip was deactivated by 1 M ethanolamine hydrochloric acid. The antibodies diluted in running buffer (1×HBS-EP+) were injected into the channel at a flow rate of 10 μL/min for 30 seconds. Seven concentrations (500 nM, 250 nM, 125 nM, 62.5 nM, 31.25 nM, 15.625 nM, and 7.813 nM) of analyte human 2IgB7H3 were injected sequentially into the channel at a flow rate of 30 μL/min for an association phase of 120 seconds, followed by dissociation of 300 seconds. Glycine (10 mM, pH 1.5) was injected as regeneration buffer after the dissociation phase.
The sensorgrams for the reference channel and the buffer channel were subtracted from the test sensorgrams. The experimental data were fitted with a 1:1 binding model. The molecular weight of the human 2IgB7H3 used in the calculation was 25.2 kDa.
as §1

human B7H3 = biological target: T2, human B7H3 (Homo sapiens, UniProt Q5ZPR3); experiment: FACS binding to human B7H3-expressing cells MCF-7
T2 construct: MCF-7 cells expressing human full-length B7H3; host or cells: MCF-7
T2 sequence (Q5ZPR3 29-534): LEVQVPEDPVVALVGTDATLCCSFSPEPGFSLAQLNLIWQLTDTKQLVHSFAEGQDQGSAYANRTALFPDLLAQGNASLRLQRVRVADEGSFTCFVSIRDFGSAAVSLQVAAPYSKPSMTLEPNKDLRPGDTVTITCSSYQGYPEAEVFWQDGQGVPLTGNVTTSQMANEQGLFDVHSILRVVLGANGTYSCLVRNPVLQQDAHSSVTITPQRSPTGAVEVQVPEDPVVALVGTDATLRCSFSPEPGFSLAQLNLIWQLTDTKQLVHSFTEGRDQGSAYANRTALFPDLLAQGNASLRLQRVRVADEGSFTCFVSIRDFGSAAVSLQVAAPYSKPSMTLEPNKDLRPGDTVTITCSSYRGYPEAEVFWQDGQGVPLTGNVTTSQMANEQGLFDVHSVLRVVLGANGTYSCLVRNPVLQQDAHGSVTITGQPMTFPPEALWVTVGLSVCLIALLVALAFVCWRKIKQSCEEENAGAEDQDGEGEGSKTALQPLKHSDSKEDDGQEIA
Procedure: FACS was used to detect the binding of antibodies to human B7H3. This method allows quantitative analysis and identification of specific molecules expressed on the surface of living cells. Unlabeled cells were used as a control to set a threshold before the assay, and the percentage change for each group that exceeded the fluorescence intensity threshold was analyzed. MCF-7 cells expressing human full-length B7H3 (1×10^5 cells/well) were incubated with various concentrations of antibodies (3.16-fold serially diluted with 1×DPBS/1% BSA from 50 nM to 0.0005 nM) in a volume of 100 μL/well in a refrigerator set to 4° C. for 1 h. Anti-human B7H3 reference antibody enoblituzumab (MacroGeneics) was used as a positive control. Human IgG1 isotype antibody was used as a negative control. After washing the cells with 1×DPBS/1% BSA, Alexa 647 goat anti-human antibody (diluted in a 1:500 ratio in 1×DPBS/1% BSA) was added. The cells were incubated in a refrigerator set to 4° C. for 0.5 h in the dark. The mean fluorescence intensity (MFI) of the cells was measured by a flow cytometry and analyzed by FlowJo. EC50 values were calculated by four-parameter non-linear regression analysis using GraphPad Prism 7 software.

human 4IgB7H3 = biological target: T3, human 4IgB7H3 (Homo sapiens, UniProt Q5ZPR3); experiment: SPR binding affinity for human 4IgB7H3 (Biacore 8K); settings: analyte human 4IgB7H3
T3 construct: Uniprot ID: Q5ZPR3, amino acids 29-461; 6xHis (C); made in house; host or cells: Expi293F
T3 sequence (Q5ZPR3 29-461): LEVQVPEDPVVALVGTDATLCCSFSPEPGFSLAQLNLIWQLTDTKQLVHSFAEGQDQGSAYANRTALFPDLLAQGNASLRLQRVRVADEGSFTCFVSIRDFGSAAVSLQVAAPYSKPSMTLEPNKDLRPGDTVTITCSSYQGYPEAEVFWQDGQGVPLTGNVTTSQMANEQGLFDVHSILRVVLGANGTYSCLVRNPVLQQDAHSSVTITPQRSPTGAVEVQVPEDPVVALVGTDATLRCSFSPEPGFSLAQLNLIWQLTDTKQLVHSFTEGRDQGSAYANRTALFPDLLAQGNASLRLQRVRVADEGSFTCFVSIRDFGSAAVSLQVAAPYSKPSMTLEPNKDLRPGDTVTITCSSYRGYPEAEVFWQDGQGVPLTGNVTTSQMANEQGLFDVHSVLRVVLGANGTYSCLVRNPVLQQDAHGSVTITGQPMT
Procedure: The affinity of antibodies for human 4IgB7H3 was determined using surface plasmon resonance (SPR). The affinity of antibodies for human 4IgB7H3 was determined by Biacore 8K. An activator was prepared by mixing 400 mM EDC and 100 mM NHS (GE) immediately prior to injection into the channel. The CM5 sensor chip was activated for 420 seconds with the activator. Goat anti-human Fc IgG (30 μg/mL in 10 mM NaAc, pH 4.5) was then injected into the channel at a flow rate of 10 μL/min for 420 seconds. The chip was deactivated by 1 M ethanolamine hydrochloric acid. The antibodies diluted in running buffer (1×HBS-EP+) were injected into the channel at a flow rate of 10 μL/min for 30 seconds. Seven concentrations (100 nM, 50 nM, 25 nM, 12.5 nM, 6.25 nM, […], and 1.563 nM) of analyte human 4IgB7H3 were injected sequentially into the channel at a flow rate of 30 μL/min for an association phase of 180 seconds, followed by dissociation of 3600 seconds. Glycine (10 mM, pH 1.5) was injected as regeneration buffer after the dissociation phase.
The sensorgrams for the reference channel and the buffer channel were subtracted from the test sensorgrams. The experimental data were fitted with a 1:1 binding model. The molecular weight of the human 4IgB7H3 used in the calculation was 47.8 kDa.
as §1

cynomolgus monkey B7H3 [3] = experiment: FACS binding to cynomolgus monkey B7H3-transfected stable cell pool
Procedure: A cell pool expressing cynomolgus monkey B7H3 was generated. Briefly, FlipinCHO cells were transfected with a pcDNA5/pOG44 expression vector containing full-length cynomolgus monkey B7H3 using Lipofectamine 2000 transfection kit (Invitrogen, 11668027) according to the manufacturer's protocol. At 48 h post-transfection, the cells were subcultured into a selective medium (F12 containing 10% FBS and 600 μg/mL hygromycin B) in a T75 flask. After two or three passages of selection, a cell pool stably and highly expressing cynomolgus monkey B7H3 (WBP3XX088-FlpinCHO.cProl.pool) was obtained by hygromycin B selection and BD FACSMelody™ cell sorting.
FACS was used to detect the binding of antibodies to cynomolgus monkey B7H3. FlpinCHO cells were transfected with cynomolgus monkey B7H3 (W3XX088-FlpinCHO.cProl.pool) (1×10^5 cells/well), and the transfected cells were incubated with various concentrations of antibodies (3.16-fold serially diluted with 1×DPBS/1% BSA from 50 nM to 0.0005 nM) in a volume of 100 μL/well in a refrigerator set to 4° C. for 1 h. Anti-human B7H3 reference antibody enoblituzumab (MacroGeneics) was used as a positive control. […] The mean fluorescence intensity (MFI) of the cells was measured by a flow cytometry and analyzed by FlowJo. EC50 values were calculated by four-parameter non-linear regression analysis using GraphPad Prism 7 software.

B1: Enoblituzumab (MacroGenics): anti-B7H3 benchmark antibody, sequences SEQ ID NOs: 117 and 119 of US20120294796A1 (antibody, chains of the INN, looked up)
heavy: EVQLVESGGGLVQPGGSLRLSCAASGFTFSSFGMHWVRQAPGKGLEWVAYISSDSSAIYYADTVKGRFTISRDNAKNSLYLQMNSLRDEDTAVYYCGRGRENIYYGSRLDYWGQGTTVTVSSASTKGPSVFPLAPSSKSTSGGTAALGCLVKDYFPEPVTVSWNSGALTSGVHTFPAVLQSSGLYSLSSVVTVPSSSLGTQTYICNVNHKPSNTKVDKRVEPKSCDKTHTCPPCPAPELVGGPSVFLLPPKPKDTLMISRTPEVTCVVVDVSHEDPEVKFNWYVDGVEVHNAKTKPPEEQYNSTLRVVSVLTVLHQDWLNGKEYKCKVSNKALPAPIEKTISKAKGQPREPQVYTLPPSREEMTKNQVSLTCLVKGFYPSDIAVEWESNGQPENNYKTTPLVLDSDGSFFLYSKLTVDKSRWQQGNVFSCSVMHEALHNHYTQKSLSLSPG
light: DIQLTQSPSFLSASVGDRVTITCKASQNVDTNVAWYQQKPGKAPKALIYSASYRYSGVPSRFSGSGSGTDFTLTISSLQPEDFATYYCQQYNNYPFTFGQGTKLEIKRTVAAPSVFIFPPSDEQLKSGTASVVCLLNNFYPREAKVQWKVDNALQSGNSQESVTEQDSKDSTYSLSSTLTLSKADYEKHKVYACEVTHQGLSSPVTKSFNRGEC
Antibody internalization Maximum MFI [1]: 39777 | ka (cynomolgus monkey B7H3 [2]): 185000 M⁻¹ s⁻¹ | kd (cynomolgus monkey B7H3 [2]): 8.14e-05 s⁻¹ | ka (human 2IgB7H3): 64400 M⁻¹ s⁻¹ | kd (human 2IgB7H3): 0.0168 s⁻¹ | Maximum MFI (human B7H3): 4644 | ka (human 4IgB7H3): 124000 M⁻¹ s⁻¹ | kd (human 4IgB7H3): 0.000126 s⁻¹ | Maximum MFI (cynomolgus monkey B7H3 [3]): 19700
